From patent publication US20140087995A1 (published 2014)
Numbered stars: 1 amine (or outer) side, 2 acyl side, 3 side chain; on linkers, the order of the positions; unused ones are H or OH. Bridge positions count the residues as written; N and C are the ends. Side chains are listed from the residue outwards. Ends that are not written are not given here. * marks the point of attachment. C20 diacid = O=C(O)CCCCCCCCCCCCCCCCCCC(=O)*; γGlu = O=C(O)[C@H](CCC(=O)[*:2])N[*:1]

B1: N^ε1-[(4S)-4-carboxy-4-(19-carboxynonadecanoylamino)butanoyl]-[Arg14,Arg17,Pro21,Pro27]-h-amylin (peptide)
peptide: K([γGlu-C20 diacid])CNTATCATQRLARFLRHSSPNFGAIPSSTNVGSNTY-NH2
modifications: disulfide 2-7; N-terminus assumed
SMILES: CC[C@H](C)[C@H](NC(=O)[C@H](C)NC(=O)CNC(=O)[C@H](Cc1ccccc1)NC(=O)[C@H](CC(N)=O)NC(=O)[C@@H]1CCCN1C(=O)[C@H](CO)NC(=O)[C@H](CO)NC(=O)[C@H](Cc1c[nH]cn1)NC(=O)[C@H](CCCNC(=N)N)NC(=O)[C@H](CC(C)C)NC(=O)[C@H](Cc1ccccc1)NC(=O)[C@H](CCCNC(=N)N)NC(=O)[C@H](C)NC(=O)[C@H](CC(C)C)NC(=O)[C@H](CCCNC(=N)N)NC(=O)[C@H](CCC(N)=O)NC(=O)[C@@H](NC(=O)[C@H](C)NC(=O)[C@@H]1CSSC[C@H](NC(=O)[C@@H](N)CCCCNC(=O)CC[C@H](NC(=O)CCCCCCCCCCCCCCCCCCC(=O)O)C(=O)O)C(=O)N[C@@H](CC(N)=O)C(=O)N[C@@H]([C@@H](C)O)C(=O)N[C@@H](C)C(=O)N[C@@H]([C@@H](C)O)C(=O)N1)[C@@H](C)O)C(=O)N1CCC[C@H]1C(=O)N[C@@H](CO)C(=O)N[C@@H](CO)C(=O)N[C@H](C(=O)N[C@@H](CC(N)=O)C(=O)N[C@H](C(=O)NCC(=O)N[C@@H](CO)C(=O)N[C@@H](CC(N)=O)C(=O)N[C@H](C(=O)N[C@@H](Cc1ccc(O)cc1)C(N)=O)[C@@H](C)O)C(C)C)[C@@H](C)O
notes: synthetic analogue of human amylin; also called compound 83
B2: N^ε1-[(4S)-4-carboxy-4-(19-carboxynonadecanoylamino)butanoyl]-[Arg17,Pro21,Pro27,Arg34]-h-amylin (peptide)
peptide: K([γGlu-C20 diacid])CNTATCATQRLANFLRHSSPNFGAIPSSTNVGRNTY-NH2
modifications: disulfide 2-7; N-terminus assumed
SMILES: CC[C@H](C)[C@H](NC(=O)[C@H](C)NC(=O)CNC(=O)[C@H](Cc1ccccc1)NC(=O)[C@H](CC(N)=O)NC(=O)[C@@H]1CCCN1C(=O)[C@H](CO)NC(=O)[C@H](CO)NC(=O)[C@H](Cc1c[nH]cn1)NC(=O)[C@H](CCCNC(=N)N)NC(=O)[C@H](CC(C)C)NC(=O)[C@H](Cc1ccccc1)NC(=O)[C@H](CC(N)=O)NC(=O)[C@H](C)NC(=O)[C@H](CC(C)C)NC(=O)[C@H](CCCNC(=N)N)NC(=O)[C@H](CCC(N)=O)NC(=O)[C@@H](NC(=O)[C@H](C)NC(=O)[C@@H]1CSSC[C@H](NC(=O)[C@@H](N)CCCCNC(=O)CC[C@H](NC(=O)CCCCCCCCCCCCCCCCCCC(=O)O)C(=O)O)C(=O)N[C@@H](CC(N)=O)C(=O)N[C@@H]([C@@H](C)O)C(=O)N[C@@H](C)C(=O)N[C@@H]([C@@H](C)O)C(=O)N1)[C@@H](C)O)C(=O)N1CCC[C@H]1C(=O)N[C@@H](CO)C(=O)N[C@@H](CO)C(=O)N[C@H](C(=O)N[C@@H](CC(N)=O)C(=O)N[C@H](C(=O)NCC(=O)N[C@@H](CCCNC(=N)N)C(=O)N[C@@H](CC(N)=O)C(=O)N[C@H](C(=O)N[C@@H](Cc1ccc(O)cc1)C(N)=O)[C@@H](C)O)C(C)C)[C@@H](C)O
notes: synthetic analogue of human amylin; also called compound 79
B3: N^ε1-[(4S)-4-carboxy-4-(19-carboxynonadecanoylamino)butanoyl]-[Arg17,Pro21,Pro27,His34]-h-amylin (peptide)
peptide: K([γGlu-C20 diacid])CNTATCATQRLANFLRHSSPNFGAIPSSTNVGHNTY-NH2
modifications: disulfide 2-7; N-terminus assumed
SMILES: CC[C@H](C)[C@H](NC(=O)[C@H](C)NC(=O)CNC(=O)[C@H](Cc1ccccc1)NC(=O)[C@H](CC(N)=O)NC(=O)[C@@H]1CCCN1C(=O)[C@H](CO)NC(=O)[C@H](CO)NC(=O)[C@H](Cc1c[nH]cn1)NC(=O)[C@H](CCCNC(=N)N)NC(=O)[C@H](CC(C)C)NC(=O)[C@H](Cc1ccccc1)NC(=O)[C@H](CC(N)=O)NC(=O)[C@H](C)NC(=O)[C@H](CC(C)C)NC(=O)[C@H](CCCNC(=N)N)NC(=O)[C@H](CCC(N)=O)NC(=O)[C@@H](NC(=O)[C@H](C)NC(=O)[C@@H]1CSSC[C@H](NC(=O)[C@@H](N)CCCCNC(=O)CC[C@H](NC(=O)CCCCCCCCCCCCCCCCCCC(=O)O)C(=O)O)C(=O)N[C@@H](CC(N)=O)C(=O)N[C@@H]([C@@H](C)O)C(=O)N[C@@H](C)C(=O)N[C@@H]([C@@H](C)O)C(=O)N1)[C@@H](C)O)C(=O)N1CCC[C@H]1C(=O)N[C@@H](CO)C(=O)N[C@@H](CO)C(=O)N[C@H](C(=O)N[C@@H](CC(N)=O)C(=O)N[C@H](C(=O)NCC(=O)N[C@@H](Cc1c[nH]cn1)C(=O)N[C@@H](CC(N)=O)C(=O)N[C@H](C(=O)N[C@@H](Cc1ccc(O)cc1)C(N)=O)[C@@H](C)O)C(C)C)[C@@H](C)O
notes: synthetic analogue of human amylin; also called compound 77
B4: N^ε1-[(4S)-4-carboxy-4-(19-carboxynonadecanoylamino)butanoyl]-[Arg17,Pro21,Pro27,His35]-h-amylin (peptide)
peptide: K([γGlu-C20 diacid])CNTATCATQRLANFLRHSSPNFGAIPSSTNVGSHTY-NH2
modifications: disulfide 2-7; N-terminus assumed
SMILES: CC[C@H](C)[C@H](NC(=O)[C@H](C)NC(=O)CNC(=O)[C@H](Cc1ccccc1)NC(=O)[C@H](CC(N)=O)NC(=O)[C@@H]1CCCN1C(=O)[C@H](CO)NC(=O)[C@H](CO)NC(=O)[C@H](Cc1c[nH]cn1)NC(=O)[C@H](CCCNC(=N)N)NC(=O)[C@H](CC(C)C)NC(=O)[C@H](Cc1ccccc1)NC(=O)[C@H](CC(N)=O)NC(=O)[C@H](C)NC(=O)[C@H](CC(C)C)NC(=O)[C@H](CCCNC(=N)N)NC(=O)[C@H](CCC(N)=O)NC(=O)[C@@H](NC(=O)[C@H](C)NC(=O)[C@@H]1CSSC[C@H](NC(=O)[C@@H](N)CCCCNC(=O)CC[C@H](NC(=O)CCCCCCCCCCCCCCCCCCC(=O)O)C(=O)O)C(=O)N[C@@H](CC(N)=O)C(=O)N[C@@H]([C@@H](C)O)C(=O)N[C@@H](C)C(=O)N[C@@H]([C@@H](C)O)C(=O)N1)[C@@H](C)O)C(=O)N1CCC[C@H]1C(=O)N[C@@H](CO)C(=O)N[C@@H](CO)C(=O)N[C@H](C(=O)N[C@@H](CC(N)=O)C(=O)N[C@H](C(=O)NCC(=O)N[C@@H](CO)C(=O)N[C@@H](Cc1c[nH]cn1)C(=O)N[C@H](C(=O)N[C@@H](Cc1ccc(O)cc1)C(N)=O)[C@@H](C)O)C(C)C)[C@@H](C)O
notes: synthetic analogue of human amylin; also called compound 60
B5: N^ε1-[(4S)-4-carboxy-4-(19-carboxynonadecanoylamino)butanoyl]-[Glu14,Arg17,Pro21,Pro27,Arg35]-h-amylin (peptide)
peptide: K([γGlu-C20 diacid])CNTATCATQRLAEFLRHSSPNFGAIPSSTNVGSRTY-NH2
modifications: disulfide 2-7; N-terminus assumed
SMILES: CC[C@H](C)[C@H](NC(=O)[C@H](C)NC(=O)CNC(=O)[C@H](Cc1ccccc1)NC(=O)[C@H](CC(N)=O)NC(=O)[C@@H]1CCCN1C(=O)[C@H](CO)NC(=O)[C@H](CO)NC(=O)[C@H](Cc1c[nH]cn1)NC(=O)[C@H](CCCNC(=N)N)NC(=O)[C@H](CC(C)C)NC(=O)[C@H](Cc1ccccc1)NC(=O)[C@H](CCC(=O)O)NC(=O)[C@H](C)NC(=O)[C@H](CC(C)C)NC(=O)[C@H](CCCNC(=N)N)NC(=O)[C@H](CCC(N)=O)NC(=O)[C@@H](NC(=O)[C@H](C)NC(=O)[C@@H]1CSSC[C@H](NC(=O)[C@@H](N)CCCCNC(=O)CC[C@H](NC(=O)CCCCCCCCCCCCCCCCCCC(=O)O)C(=O)O)C(=O)N[C@@H](CC(N)=O)C(=O)N[C@@H]([C@@H](C)O)C(=O)N[C@@H](C)C(=O)N[C@@H]([C@@H](C)O)C(=O)N1)[C@@H](C)O)C(=O)N1CCC[C@H]1C(=O)N[C@@H](CO)C(=O)N[C@@H](CO)C(=O)N[C@H](C(=O)N[C@@H](CC(N)=O)C(=O)N[C@H](C(=O)NCC(=O)N[C@@H](CO)C(=O)N[C@@H](CCCNC(=N)N)C(=O)N[C@H](C(=O)N[C@@H](Cc1ccc(O)cc1)C(N)=O)[C@@H](C)O)C(C)C)[C@@H](C)O
notes: synthetic analogue of human amylin; also called compound 51

molecular target: T1, rat calcitonin receptor (rat, UniProt P32214 25-516); assay: ratio of binding IC50s: rat calcitonin receptor over rat amylin receptor (reference)
T1 construct: whole, on cells; also called rCTR; rat calcitonin (a) receptor
T1 sequence (looked up): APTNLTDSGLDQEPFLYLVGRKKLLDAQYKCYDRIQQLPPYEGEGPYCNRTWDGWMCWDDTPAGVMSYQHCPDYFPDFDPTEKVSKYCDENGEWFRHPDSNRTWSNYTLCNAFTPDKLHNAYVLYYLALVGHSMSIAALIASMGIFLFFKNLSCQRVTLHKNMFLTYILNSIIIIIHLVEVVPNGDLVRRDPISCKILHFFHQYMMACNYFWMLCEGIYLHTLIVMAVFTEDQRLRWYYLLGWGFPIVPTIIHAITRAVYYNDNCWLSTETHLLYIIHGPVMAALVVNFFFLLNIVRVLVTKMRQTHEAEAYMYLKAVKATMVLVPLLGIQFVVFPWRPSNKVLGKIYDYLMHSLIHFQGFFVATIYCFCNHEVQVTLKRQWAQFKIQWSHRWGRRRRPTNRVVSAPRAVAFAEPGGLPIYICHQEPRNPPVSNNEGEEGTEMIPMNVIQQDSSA

Binder | Ratio rCT/rAmylin binding
B1 | 49.7
B2 | 21.5
B3 | 137
B4 | 122
B5 | 119

molecular target: T1, rat calcitonin receptor; assay: SPA competition with 125I-calcitonin, membranes of BHK cells with rat calcitonin receptor (Assay VIII)

Binder | IC50 [µM]
B1 | 0.141
B2 | 0.0355
B3 | 0.205
B4 | 0.0263
B5 | 0.062

molecular target: T2, rat amylin receptor (rat calcitonin receptor + rat RAMP 3) (rat, UniProt P32214 25-516; Q9JJ73 23-147); assay: SPA competition with 125I-rat amylin, membranes of BHK cells with rat calcitonin receptor + rat RAMP3 (Assay VI)
T2 construct: whole, on cells; also called rAmylin-R; rat amylin 3(a) receptor
T2 sequence (looked up) 1: T1 sequence (looked up)
T2 sequence (looked up) 2: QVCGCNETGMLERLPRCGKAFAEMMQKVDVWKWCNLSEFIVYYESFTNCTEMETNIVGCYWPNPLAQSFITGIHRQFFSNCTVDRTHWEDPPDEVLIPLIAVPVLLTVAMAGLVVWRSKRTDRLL

Binder | IC50 [µM]
B1 | 0.00283
B2 | 0.00165
B3 | 0.0015
B4 | 0.000215
B5 | 0.000523

molecular target: T3, human calcitonin receptor (human, UniProt P30988 25-474); assay: ratio of binding IC50s: human calcitonin receptor over human amylin receptor (reference)
T3 construct: whole, on cells; also called hCTR; hCT
T3 sequence (looked up): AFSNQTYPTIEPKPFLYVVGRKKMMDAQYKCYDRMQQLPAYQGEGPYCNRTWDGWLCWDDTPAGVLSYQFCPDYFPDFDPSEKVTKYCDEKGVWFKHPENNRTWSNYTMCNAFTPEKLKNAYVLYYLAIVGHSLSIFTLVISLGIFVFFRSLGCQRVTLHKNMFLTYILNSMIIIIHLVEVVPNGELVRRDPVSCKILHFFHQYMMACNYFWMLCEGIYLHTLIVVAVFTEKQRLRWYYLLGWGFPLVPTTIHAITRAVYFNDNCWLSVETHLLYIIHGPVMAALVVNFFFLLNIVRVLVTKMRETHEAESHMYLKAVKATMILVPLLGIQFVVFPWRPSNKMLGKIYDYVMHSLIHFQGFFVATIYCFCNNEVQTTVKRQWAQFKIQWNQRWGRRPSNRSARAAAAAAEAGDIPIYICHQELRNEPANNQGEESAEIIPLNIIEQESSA
Procedure, shortened: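 Competition binding by SPA uses membrane preparations (35 ng/μL final) in pH 7.4 Hepes buffer with 1 mM CaCl2 and 5 mM MgCl₂. Incubation lasts 120 min at 25° C, and IC₅₀ comes from one-site fitting.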

Binder | Ratio hCT/hAmylin binding
B1 | 146
B2 | 46.1
B3 | 118
B4 | 45.2
B5 | 37.5
